Data on 1 protein can be found in paper PMC4900533.

Series [1] in a line: confocal microscopy, apical marker gp135, MDCKII. To be noted: glycan lost; control: wild type.
Series [2] is described as follows: immunoblot of PNGase F-treated MDCKII lysates, densitometry. Conditions: glycan lost; control: wild type. In general terms: A western blot detects proteins with antibodies after separation by electrophoresis.

B1: ABCG2: Q596 (protein)
parent chain: MSSSNVEVFIPVSQGNTNGFPATASNDLKAFTEGAVLSFHNICYRVKLKSGFLPCRKPVEKEILSNINGIMKPGLNAILGPTGGGKSSLLDVLAARKDPSGLSGDVLINGAPRPANFKCNSGYVVQDDVVMGTLTVRENLQFSAALRLATTMTNHEKNERINRVIQELGLDKVADSKVGTQFIRGVSGGERKRTSIGMELITDPSILFLDEPTTGLDSSTANAVLLLLKRMSKQGRTIIFSIHQPRYSIFKLFDSLTLLASGRLMFHGPAQEALGYFESAGYHCEAYNNPADFFLDIINGDSTAVALNREEDFKATEIIEPSKQDKPLIEKLAEIYVNSSFYKETKAELHQLSGGEKKKKITVFKEISYTTSFCHQLRWVSKRSFKNLLGNPQASIAQIIVTVVLGLVIGAIYFGLKNDSTGIQNRAGVLFFLTTNQCFSSVSAVELFVVEKKLFIHEYISGYYRVSSYFLGKLLSDLLPMRMLPSIIFTCIVYFMLGLKPKADAFFVMMFTLMMVAYSASSMALAIAAGQSVVSVATLLMTICFVFMMIFSGLLVNLTTIASWLSWLQYFSIPRYGFTALQHNEFLGQNFCPGLNATGNNPCNYATCTGEEYLVKQGIDLSPWGLWKNHVALACMIVIFLTIAYLKLLFLKKYS
Regarding B1, in series [1], the localisation_or_trafficking entry is listed as “no change”. For the same protein, in series [2], the expression_or_secretion entry is given as “decreases”.
